Results from patent publication US9598483B2, “Monoclonal antibody binding specifically to DLL4 and use thereof” (ABLBIO, priority 2012, dated 2017).
Changes are numbered by the printed parent chain. “Also recorded” adds a separate entry of the source. Each block holds one molecule with its values, some of them ahead of it.

Key:
[1] = target: T1, human DLL4-His bound to plate-coated Notch 1-Fc (Homo sapiens, UniProt Q9NR61); test: ELISA-based solution competition (neutralization) test, DLL4 binding to hNotch-1-hFc; settings: antibody concentration of 0.1 μM
T1 construct: The DLL4 antigen protein comprises 27th to 522nd amino acid residues of DLL4; purchased R&D System 1506-D4/CF
Experimental: The neutralization effects of the anti-DLL4 antibodies were evaluated using an ELISA-based solution competition test.
Each well of a 96-well microtiter plate (Nunc-Immuno Plate, NUNC, Rochester, N.Y.) was coated with 100 μl of 500 ng/ml of hNotch-1-hFc protein (R&D Systems) (diluted in PBS) at 4° C. overnight, and non-specific binding sites were blocked with BSA for 2 hours.
The anti-DLL4 antibody (purified protein) on the 96-well microtiter plate was premixed with serial dilutions of antigen protein (DLL4 antigen, 600 ng/m) at an antibody concentration ranging from 0 nM to 140 nM. The antigen/antibody mixture was incubated for 30 minutes, and then transferred to a microtiter plate precoated with the DLL4 receptor hNotch-1 protein (50 ng/well) in order to measure free […]. Then, the plate was incubated for 2 hours and washed five times with 0.05% tween 20-containing PBS. In order to detect the DLL4 antigen bound to the plate, an HRP-conjugated His […] polyclonal antibody reagent (Roche applied science) was diluted at a ratio of 1:500, and the washed microtiter plate was treated with the diluted antibody reagent, and then allowed to react at 37° C. for 1 hour. Then, color development was performed using a colorimetric substrate (3,3′,5,5′-tetramethylbenzidine; Sigma-Aldrich Co.), and the enzymatic reaction was stopped using 0.5 mol/l of sulfuric acid. The amounts of antibodies required to achieve a 50% decrease in human DLL4-His bound to plate-coated Notch 1-Fc (IC50) are shown in Table 1 below.

[2] = tested on: human umbilical vein endothelial cell (HUVEC); test: HUVEC proliferation assay on rhDLL4-coated plate (CCK-8); type: cell-based; settings: rhDLL4-coated plate 1 μg/ml; MLCK-2 mAb 20 μg/ml; 96 hours
Experimental: In order to investigate the effect of DLL4-binding antibodies on proliferation of human umbilical vein endothelial cell (HUVEC), a representative anti-DLL4 antibody, MLCK-2 antibody, was analyzed for the effect thereof on proliferation of HUVEC.
To be specific, human umbilical vein endothelial cell (HUVEC) was purchased from Lonza to be used in this experiment. T-flask (Nunc) was coated with PBS buffer (Gibco) added with 1% gelatin (Sigma) at a room temperature for 4 to 6 hours, washed with PBS, and then it was used for culturing HUVECs. EBM-2 (Lonza) supplemented with EGM-2 Single Quot (Lonza) was used as a culture medium, density of a cell culture was remained below 80%, and the cells were cultured at 37° C. in a 5% CO2 incubator. The cells before passage 6 were used for this experiment. HUVEC proliferation assay was done by following process. First, to prepare the hDLL4-coated plate, one day before conducting the experiment, rhDLL4 (R&D systems) was diluted in a carbonate buffer to a final concentration of 1 μg/ml in a 96-well plate (BD), where 100 μl of the diluted rhDLL4 was inoculated per each well, and the plate was incubated at 4° C. overnight. […] Using the apparatus SpectraMax 190 (Molecular Devices), the absorption of the sample at 450 nm-650 nm was measured and the levels of cell proliferation were compared among different test groups.

[3] = tested on: DLL4/Notch signaling pathway; test: Western blotting of NICD in HUVECs on rhDLL4-coated plate (DLL4/Notch signaling pathway); type: cell-based, human; settings: 20 μg/ml MLCK-2 mAb
Source text: In Notch signaling, when DLL4 binds to a Notch receptor, this causes a […] change in the Notch receptor leading to the cleavage thereof, and then an intracellular domain of Notch (NICD) enters the nucleus and mediates a Notch signaling. In this regard, it was confirmed whether the anti-DLL4 antibody of the present invention could inhibit the binding between DLL4 and a Notch receptor, thereby disrupting the Notch signaling through monitoring the inhibition of a Notch receptor cleavage as below.
To be specific, in order to determine the inhibitory activity of the DLL4-binding antibodies against the DLL4/Notch signaling pathway, the inhibition of signaling pathway in HUVECs was analyzed in the present experiment. One day before conducting experiment, a recombinant human DLL4 (rhDLL4, R&D systems) was diluted with carbonate buffer to a final concentration of 1 μg/ml, and then 1 ml/well of the diluted rhDLL4 was added to a 6-well plate (BD) and incubated at 4° C. overnight. […]
Subsequently, the plate was put on ice and HUVECs were collected from each well using a scraper and put into a 1.5 ml tube and stored in ice. […] For SDS-PAGE analysis, the supernatant was added to 5×SDS sample buffer and boiled at 100° c. for 10 minutes analyzed by SDS-PAGE. […]

T1 sequence (Q9NR61 27-522): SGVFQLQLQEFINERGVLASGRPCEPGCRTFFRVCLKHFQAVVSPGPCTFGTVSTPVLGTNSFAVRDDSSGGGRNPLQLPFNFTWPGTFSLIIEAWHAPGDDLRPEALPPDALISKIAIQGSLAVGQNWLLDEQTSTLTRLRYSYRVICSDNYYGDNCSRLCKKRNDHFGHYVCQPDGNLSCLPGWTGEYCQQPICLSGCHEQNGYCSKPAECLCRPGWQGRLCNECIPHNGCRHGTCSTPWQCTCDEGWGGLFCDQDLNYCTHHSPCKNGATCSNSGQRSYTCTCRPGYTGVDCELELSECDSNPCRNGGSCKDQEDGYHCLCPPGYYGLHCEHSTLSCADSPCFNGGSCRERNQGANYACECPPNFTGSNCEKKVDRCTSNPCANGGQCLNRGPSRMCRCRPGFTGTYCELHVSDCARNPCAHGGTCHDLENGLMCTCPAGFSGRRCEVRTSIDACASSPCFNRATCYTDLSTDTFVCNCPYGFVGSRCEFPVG

B1: MLCK-2: human monoclonal anti-DLL4 antibody; heavy chain variable region SEQ ID NO: 5, light chain variable region SEQ ID NO: 19 (antibody, V domains shown)
VH: EVQLLESGGGLVQPGGSLRLSCAASGFTFSDYAMSWVRQAPGKGLEWVSWIYSGSGNKYYADSVKGRFTISRDNSKNTLYLQMNSLRAEDTAVYYCARADWPFDYWGQGTLVTVSS
VL: QSVLTQPPSASGTPGQRVTISCTGSSSNIGSNDVTWYQQLPGTAPKLLIYADSKRPSGVPDRFSGSKSGTSASLAISGLRSEDEADYYCGTWDYSLSAYVFGGGTKLTVL
modifications: a heavy chain variable region of MLCK-2; a light chain variable region of MLCK-2
blocking of the bindings between DLL4 and human Notch 1 receptor [1]: blocked most of the bindings
effect on DLL4-mediated inhibition of HUVEC proliferation [2]: blocks the DLL4-mediated suppression of HUVEC proliferation
level of NICD / Notch signaling (western blotting) [3]: reduced the level of NICD; also recorded: inhibits Notch signaling

B2: MLCK-1: human monoclonal anti-DLL4 antibody; heavy chain variable region SEQ ID NO: 1, light chain variable region SEQ ID NO: 15 (antibody, V domains shown)
VH: B1 VH with G54D, S55D, W101P
VL: B1 VL with D33N, T35S, A51S, S53N, K54N, G90A, Y94S, S97N, A98G
modifications: a heavy chain variable region of MLCK-1; a light chain variable region of MLCK-1
blocking of the bindings between DLL4 and human Notch 1 receptor [1]: blocked most of the bindings

More lines, now with the values ahead:

blocking of the bindings between DLL4 and human Notch 1 receptor [1]: blocked most of the bindings
B3: MLCK-4: human monoclonal anti-DLL4 antibody; heavy chain variable region SEQ ID NO: 11, light chain variable region SEQ ID NO: 27 (antibody, V domains shown)
VH: EVQLLESGGGLVQPGGSLRLSCAASGFTFSNYAMSWVRQAPGKGLEWVSWIYHGGGDTYYADSVKGRFTISRDNSKNTLYLQMNSLRAEDTAVYYCARGPNYTFGKPFDYWGQGTLVTVSS
VL: B1 VL with T23R, S26P, S31N, D33T, T35Y, A51S, K54Q, T91S
modifications: a heavy chain variable region of MLCK-4; a light chain variable region of MLCK-4

blocking of the bindings between DLL4 and human Notch 1 receptor [1]: blocked most of the bindings
B4: MLCK-3: human monoclonal anti-DLL4 antibody; heavy chain variable region SEQ ID NO: 8, light chain variable region SEQ ID NO: 23 (antibody, V domains shown)
VH: B1 VH with S53Y, G54D, N57S, W101L
VL: B1 VL with T23S, S31N, D33A, A51S, S53N, K54H, Y94A, A98G
modifications: a heavy chain variable region of MLCK-3; a light chain variable region of MLCK-3
